The values below come from PMC8325870, “SUMOylated non-canonical polycomb PRC1.6 complex as a prerequisite for recruitment of transcription factor RBPJ”.

In this series the target is RBPJ wt (UniProt P31266 1-526). The experiment in a line: EMSA; anti-Flag supershift; 10 mM Tris-HCl pH 7.5, 100 mM NaCl, 0.1 mM EDTA, 0.5 mM DTT, 4% glycerol, 10 ng poly(dI-dC), ~0.5 ng 32P-oligo, 2 or 4 ul reticulocyte lysate; temperature not stated. The conditions noted are these: protein: ivt; tags: Flag; label: 32P; 5' overhang 4 nt at both ends (CCTG on F, CTCG on R). (A gel shift assay detects complexes by their altered migration in electrophoresis.)
Sequence of RBPJ wt (P31266 whole entry): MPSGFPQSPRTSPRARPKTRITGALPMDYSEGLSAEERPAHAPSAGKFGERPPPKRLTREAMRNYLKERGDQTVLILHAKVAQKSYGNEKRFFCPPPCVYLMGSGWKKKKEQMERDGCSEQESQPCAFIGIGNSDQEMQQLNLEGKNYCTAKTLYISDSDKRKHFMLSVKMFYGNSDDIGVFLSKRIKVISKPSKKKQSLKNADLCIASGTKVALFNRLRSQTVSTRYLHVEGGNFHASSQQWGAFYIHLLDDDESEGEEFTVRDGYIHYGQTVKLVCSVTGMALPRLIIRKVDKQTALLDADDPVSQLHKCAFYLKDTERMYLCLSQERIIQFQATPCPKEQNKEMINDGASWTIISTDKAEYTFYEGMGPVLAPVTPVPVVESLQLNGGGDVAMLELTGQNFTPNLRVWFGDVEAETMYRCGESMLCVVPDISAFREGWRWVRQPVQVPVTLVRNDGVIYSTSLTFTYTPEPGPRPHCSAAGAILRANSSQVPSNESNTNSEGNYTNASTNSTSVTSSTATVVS

B1: FO-233F/FO-233R (EBV TP-1 promoter, two RBPJ sites) (dsDNA)
DNA 1: CCTGGAACTATTTTCCCACGGTGCCCTTCCGCCCATTTTCCCACGAGTCG
DNA 2: CTCGCGACTCGTGGGAAAATGGGCGGAAGGGCACCGTGGGAAAATAGTTC
For B1, the binding result is reported as “binds”.
